The results in this text go back to US20260167734A1 (PROVIDENCE HEALTH AND SERVICES OREGON, published 2026).

For orientation: EC50 (read off the curve) means the concentration giving half of the maximal effect. Read a low EC50 (read off the curve) as greater potency. What is called Kd is the concentration at which binding is half-saturated. The term koff denotes the rate constant with which the complex falls apart. For orientation: kon means the rate constant with which the complex forms.

For assay [1], the target named is T1, soluble human Fas ligand (FasL) (human, UniProt P48023 103-281, limits assumed).
T1 construct: also called sFasL; recombinant soluble FasL
T1 sequence: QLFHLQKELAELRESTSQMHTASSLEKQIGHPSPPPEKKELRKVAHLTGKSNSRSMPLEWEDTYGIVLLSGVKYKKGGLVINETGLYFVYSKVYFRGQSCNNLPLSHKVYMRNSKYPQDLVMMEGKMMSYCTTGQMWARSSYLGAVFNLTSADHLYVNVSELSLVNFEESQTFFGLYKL
Kind of assay: ELISA on soluble FasL. For orientation: An ELISA detects its analyte on a solid surface through an enzyme-linked reagent.

The target of assay [2] is T1, soluble human Fas ligand (FasL). Kind of assay: single-dose SPR. An excerpt: Several variants of the M3T01 antibody were isolated and tested for binding affinity to human FasL using a single-dose SPR affinity measurement. Each variant clone includes the same CDR sequences as M3T01 but includes one or more amino acid substitutions in the framework region (FR) of the VH domain and/or VL domain. The variant sequences, substitutions relative to the M3T01 VH and VL domains, and measured binding affinity are listed in Table 2. The binding affinities reported in Table 2 are from a single-dose SPR study.

The target of assay [3] is T2, rat FasL, cell surface (rat, UniProt P36940 1-278).
T2 construct: Expressed on transfected HEK293T cells
T2 sequence: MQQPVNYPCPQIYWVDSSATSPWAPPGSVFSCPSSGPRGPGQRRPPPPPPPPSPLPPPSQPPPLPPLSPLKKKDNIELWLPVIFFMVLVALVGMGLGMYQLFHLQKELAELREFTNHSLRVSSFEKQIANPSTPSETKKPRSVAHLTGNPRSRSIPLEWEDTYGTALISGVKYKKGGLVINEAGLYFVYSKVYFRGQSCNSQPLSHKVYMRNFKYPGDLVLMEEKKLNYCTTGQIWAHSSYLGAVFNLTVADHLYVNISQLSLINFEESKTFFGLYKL
Kind of assay: flow cytometry, HEK293T cells transfected with rat FasL. As to the method: (§1) FIG. 2B: Binding of M3T01 to cell surface FasL across multiple species (human, cynomolgus macaque, rat, and mouse). M3T01 staining of HEK293T cells transfected with vectors expressing FasL from various species was measured by flow cytometry.
(§2) Next, assays were performed to evaluate binding of M3T01 to cell-surface, membrane-bound FasL from a variety of different species. HEK293T cells were transfected with vectors expressing either mouse, human, rat or cynomolgus macaque FasL and binding by M3T01 was measured by flow cytometry.
(A flow cytometer gives signals particle by particle.)

Assay [4] concerns the target T1, soluble human Fas ligand (FasL). The experiment in a line: SPR, BIACORE 8K, multi-dose; M3T01 in column 'Ligand', Recombinant Human Fas Ligand in column 'Analyte'. As to the method: (§3) Binding of M3T01 to human FasL was measured by multi-dose SPR using BIACORE™ 8K. […] In another study, binding of M3T01 to soluble FasL (sFasL) was measured by ELISA.
The target is the same in assay [5]. Kind of assay: multi-dose SPR, BIACORE 8K; multi-dose SPR using BIACORE 8K. As to the method: as §3
For orientation: Surface plasmon resonance follows binding to a sensor surface in real time, without labels.

Assay [6] concerns the target T3, mouse FasL, cell surface (mouse, UniProt P41047 1-279).
T3 construct: Expressed on transfected HEK293T cells
T3 sequence: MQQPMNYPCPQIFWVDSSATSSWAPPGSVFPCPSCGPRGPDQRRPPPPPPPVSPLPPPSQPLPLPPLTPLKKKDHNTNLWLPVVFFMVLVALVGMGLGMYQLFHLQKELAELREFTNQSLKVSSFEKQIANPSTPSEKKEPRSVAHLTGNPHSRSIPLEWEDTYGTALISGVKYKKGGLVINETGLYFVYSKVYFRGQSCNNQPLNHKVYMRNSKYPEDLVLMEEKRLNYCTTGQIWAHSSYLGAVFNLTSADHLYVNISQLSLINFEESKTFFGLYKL
The experiment in a line: flow cytometry, HEK293T cells transfected with mouse FasL. The protocol:
as §1, §2

Assay [7] addresses T4, cynomolgus macaque FasL, cell surface (cynomolgus macaque, UniProt P63308 1-280).
T4 construct: Expressed on transfected HEK293T cells
T4 sequence: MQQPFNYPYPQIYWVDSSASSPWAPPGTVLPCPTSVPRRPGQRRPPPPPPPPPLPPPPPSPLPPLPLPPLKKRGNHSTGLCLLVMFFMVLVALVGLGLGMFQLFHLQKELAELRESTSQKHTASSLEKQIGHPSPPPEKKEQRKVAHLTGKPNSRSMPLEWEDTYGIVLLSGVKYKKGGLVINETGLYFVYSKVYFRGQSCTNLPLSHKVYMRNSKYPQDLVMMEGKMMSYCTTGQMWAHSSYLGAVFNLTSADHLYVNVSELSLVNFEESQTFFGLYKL
Kind of assay: flow cytometry, HEK293T cells transfected with cynomolgus macaque FasL. The protocol: as §1, §2

For assay [8], the target named is T5, human FasL, cell surface (membrane-bound) (human, UniProt P48023 1-281).
T5 sequence: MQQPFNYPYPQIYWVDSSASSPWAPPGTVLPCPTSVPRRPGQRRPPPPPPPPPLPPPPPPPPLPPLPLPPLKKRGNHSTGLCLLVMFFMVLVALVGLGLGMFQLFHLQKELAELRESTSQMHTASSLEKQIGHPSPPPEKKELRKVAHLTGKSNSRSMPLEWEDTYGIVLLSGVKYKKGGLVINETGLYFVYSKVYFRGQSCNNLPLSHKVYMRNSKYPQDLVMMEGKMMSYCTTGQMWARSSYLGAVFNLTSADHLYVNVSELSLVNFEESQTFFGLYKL
Kind of assay: cell-based or functional assay.

Where a chain is given by its changes, count along the chain named. Numbers in names are those of the source.

B1: M3T01 (antibody, V domains shown)
VH: QVQLVESGGGVVQPGRSLRLSCAASGFTFSTYGIHWVRQAPGKGLEWVAVIWYDGSDKFYADSVKGRFTISRDNSKNTLYLQMNSLRAEDTAVYYCARDRDNWNYFDYWGQGTLVTVSS
VL: DIQMTQSPSTLSASVGDRVTITCRASQSISSWLAWYQQKPGKAPKFLIYQASSLESGVPSRFSGSGSGTEFTLTISSLQPDDFATYYCQQYNSYITFGQGTRLEIKR
notes: Fully human IgG4/kappa with S228P; also called M27.2
Take B1: in assay [1], the “EC50 (read off the curve)” value is roughly 0.02 nM. Besides, the dissociation constant (Kd) in assay [2] was determined as 3.2 nM; in assay [5], 0.974 nM. Besides, the binding result in assay [3], in assay [6] and in assay [7] was “binds” each time. Moreover, in assay [4], the off-rate constant (koff) is 0.000235 s⁻¹. Also, in assay [4], the on-rate (kon) stood at 242000 M⁻¹ s⁻¹. Also, the “inhibition of FasL-mediated apoptosis of Jurkat cells (annexin-V externalization, flow cytometry), IC50” value in assay [8] worked out at 0.33 nM. Also, in assay [8], the “inhibition of FasL-mediated apoptosis of Jurkat cells, potency relative to sCD95-Fc” value was 310 fold.

B2: M27.3 (antibody, V domains shown)
VH: B1 VH with N77D, Q82E, V93M
VL: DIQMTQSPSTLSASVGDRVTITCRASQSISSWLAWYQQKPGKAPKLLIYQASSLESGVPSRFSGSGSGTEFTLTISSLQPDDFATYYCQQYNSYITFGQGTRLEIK
notes: Variant clone of M3T01 with the same CDRs
In the case of B2, the equilibrium dissociation constant (Kd) in assay [2] turned out to be 1.96 nM.

B3: M27.4 (antibody, V domains shown)
VH: B1 VH
VL: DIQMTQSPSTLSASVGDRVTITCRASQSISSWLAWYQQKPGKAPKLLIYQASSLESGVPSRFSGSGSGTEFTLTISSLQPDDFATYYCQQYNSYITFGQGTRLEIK
notes: as for B2
As for B3, binding in assay [2] was characterised by a dissociation constant (Kd) of 3.1 nM.

B4: M27.6 (antibody, V domains shown)
VH: B1 VH with N77D, Q82E
VL: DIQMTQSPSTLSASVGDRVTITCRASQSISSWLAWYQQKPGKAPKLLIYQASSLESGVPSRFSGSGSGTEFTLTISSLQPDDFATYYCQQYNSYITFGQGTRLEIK
notes: as for B2
In assay [2], B4 displayed a Kd of 2.12 nM.

B5: M27.1 (antibody, V domains shown)
VH: B1 VH with N77D, Q82E, V93M
VL: DIQMTQSPSTLSASVGDRVTITCRASQSISSWLAWYQQKPGKAPKFLIYQASSLESGVPSRFSGSGSGTEFTLTISSLQPDDFATYYCQQYNSYITFGQGTRLEIK
notes: as for B2
On to B5, for which binding in assay [2] was characterised by a dissociation constant (Kd) of 1.36 nM.

B6: M27.5 (antibody, V domains shown)
VH: B1 VH with N77D, V93M
VL: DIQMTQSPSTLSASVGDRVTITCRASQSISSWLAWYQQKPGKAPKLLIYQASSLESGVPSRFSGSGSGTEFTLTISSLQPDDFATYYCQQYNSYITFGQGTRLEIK
notes: as for B2
Regarding B6, the dissociation constant (Kd) in assay [2] stood at 3.44 nM.
